The test system of series [1] is casein. Description: Residual protease activity after incubation (pH, temperature, detergent components). The conditions noted are these: for Enzyme activity after incubation: 90 min at 40° C.; for Residual activity (% of original activity): 1 h at 50° C. In kind it is biochemical. The method, then: The effect of pH on enzyme stability was studied by incubating the enzyme in different buffers of varying pH values at 50° C. for 1 h and then measuring the residual activity using standard assay procedure. AL protease was very stable in a broad pH range, maintaining over 90% of its original activity between pH 6 and 11, and more than 70% activity at pH 12 (FIG. 8A).
(§1) The effect of temperature on activity of the two proteases was determined by assaying enzyme activity at different temperatures in glycine-NaOH buffer, pH 10, while the thermal stability was determined by incubating the enzymes at different temperatures followed by measuring the residual activity under standard conditions. These measurements were done both in the presence and absence of 5 mM Ca^2+. […] Its optimum temperature for activity was at 70° C. (FIG. 9A), but when incubated at that temperature the enzyme was inactivated within 1 h (FIG. 10A). […] At temperature values above 50° C. Ca^2+ was absolutely required for the thermal stability of AL-89 protease (FIG. 10B).
(§2) Assay of protease activity was performed according to Ferrero et al. with some modifications. One millilitre of the reaction mixture containing 1% casein in 50 mM glycine-NaOH buffer, pH 10.0 and an appropriate amount of enzyme was incubated at 50° C. for 20 min after which the reaction was terminated by addition of 0.5 ml of trichloroacetic acid and centrifuged. 2.5 ml sodium carbonate was added to 0.5 ml supernatant followed by 0.5 ml of 1 M Folin-Ciocalteau reagent. The reaction mixture was allowed to stand for 30 min at room temperature before measuring the absorbance at 660 nm. One unit of protease activity was defined as the amount of enzyme, which released 1 μg tyrosine per min under standard assay conditions.
Effect of oxidation by H2O2 on AL protease stability was determined by residual activity measurements because of the temperature-induced decomposition of the peroxide in the calorimeter. […] Residual activity of the AL protease was also studied after incubation with sodium tripolyphosphate (STP; Sigma), sodium-Zeolite 4A (Prayon Tessenderlo, Belgium) and sodium citrate, respectively, representing some of the sequestering agents used in washing detergents. The enzyme activity was unchanged in the presence of 0.01-0.05% (w/v) Zeolite and STP, respectively, after 90 min at 40° C., and more than 80% of the original activity was retained in the presence of 0.5 M citrate (data not shown).

The test system of series [2] is casein. Description: Protease activity with casein as substrate (specific activity, pH and temperature profile). In kind it is biochemical. The conditions noted are these: for Optimum pH for activity: assayed at 50° C. The method, then:
The AL protease activity with 0.1-4% (w/v) casein and haemoglobin (Sigma), respectively, as protein substrates, was determined using a modified method of Ferrero et al. (1996). The reaction mixture in a total volume of 1 ml containing the substrate and an appropriate amount of the enzyme in 50 mM glycine-NaOH buffer, pH 10 was incubated at […] for 20 min, after which the reaction was terminated by addition of 0.5 ml trichloroacetic acid with subsequent centrifugation. To 0.5 ml supernatant was added 2.5 ml sodium carbonate followed by 0.5 ml of 1 M Folin-Ciocalteau Phenol reagent (Sigma). The reaction mixture was allowed to stand for 30 min-at room temperature before absorbance was measured at 660 nm. One unit of enzyme activity is defined as amount of the enzyme, which released 1 μg tyrosine per minute under the assay conditions.
Protease activity was determined using casein as substrate as described earlier [3.12]. The reaction mixture in a total volume of 2 ml was composed of 1% casein, 50 mM glycine-NaOH buffer, pH 10, and appropriately diluted enzyme. After 20 min incubation at 50° C. the reaction was terminated by adding equal volume of 10% trichloroacetic acid (TCA). After separation of the unreacted casein precipitate by centrifugation, 0.5 ml of clear supernatant was mixed with 2.5 ml of 0.5 M Na2CO3 and 0.5 ml of 1 N Folin-Ciocalteau's phenol reagent. After 30 min at 25° C., absorbance was measured at 660 nm against a reagent blank. One unit of protease activity was defined as the amount of enzyme that released 1 μg of amino acid equivalent to tyrosine per min under the standard assay conditions.
Both proteases were optimally active in the alkaline region.
as §1, §2

Another series deals with haemoglobin. Description: Protease activity with haemoglobin as substrate. In kind it is biochemical. The conditions noted are these: 50 mM glycine-NaOH, pH 10 at 50° C.
A short description of another series: Isoelectric point. In kind it is physicochemical.
Series [3] in a line: Autolytic degradation by SDS-PAGE. The series is classed as physicochemical. The conditions noted are these: incubation at 50° C. up to 24 h; not shown. The method, then:
Autolytic degradation of the protease was investigated by SDS-PAGE. The AL protease and Subtilisin Carlsberg were individually incubated in 10 mM Tris-HCl buffer 8 for 24 h at 50° C. Electrophoresis of the enzyme samples taken at different time intervals was performed according to the method of Laemmli, on 12% polyacrylamide gel using a Mini Protean II equipment (Bio-Rad, Richmond, Calif.).

B1: AL protease: thermostable alkaline, non-Ca2+-dependent serine protease isolated from Nesterenkonia sp. nov. strain AL (DSM 15380); SEQ. ID. NO. 1 (protein, listed as Nesterenkonia sp.)
chain: QNPADSPHIGKVFFSTNQGDFVCSANIVASANQSTVATAGHCLHDGNGGQFARNFVFAPAYDYGESEHGVWAAEELVTSAEWANRGDFEHDYAFAVLETKGGTTVQQQVGTASPIAFNQPRGQYYSAYGYPAAAPFNGQELHSCHGTATNDPMGSSTQGIPCNMTGGSSGGPWFLGQGTGGAQNSVNSYGYTFLPDVMFGPYFGSGAQQNYNYAST
In the case of B1, the “Enzyme activity after incubation” value with casein [1] (0.01-0.05% (w/v) STP, data not shown) was “unchanged”; in the series with casein [1] (0.01-0.05% (w/v) Zeolite, data not shown) it was “unchanged”. Also, in the series with casein [1] (0.5 M citrate, data not shown), the Original activity retained entry is given as “more than 80%”. The “Activity, % of the original” value in the series on casein [1] (1 M peroxide (H2O2) at 40° C. for 90 min) was 60%. Moreover, in the series on casein [1] (1.6 M peroxide (H2O2), 40° C.), the “Effect on activity relative to 1 M peroxide” value is given as “did not reduce the activity further”. The “Residual activity (% of original activity)” value is on record as “over 90%” in the series with casein [1] (between pH 6 and 11); “more than 70%” with casein [1] (pH 12). For the same molecule, in the series on casein [1] (1 h incubation at 65° C., presence or absence of Ca^2+), the Thermal stability result is “very good stability”. For the same molecule, in the series on casein [1] (90 min incubation with 1% SDS at 40° C., pH 10.0), the Initial activity retained result is reported as “About 75%”. This molecule also had a Time to inactivation in the series with casein [1] (incubated at 70° C.) of at most 1 h. The “Time to complete hydrolysis of casein” value in the series with casein [2] (50 mM glycine-NaOH, pH 10 at 50° C.) is reported as at most 20 min. Moreover, the “Optimum pH for activity” value with casein [2] and with casein [2] (listed as alkaline protease from Nesterenkonia sp. nov. strain) was 10 each time. The “Activity as % of peak activity” value in the series with casein [2] (at pH 12) is recorded as “about 60%”. Also, the “Activity as % of maximum activity” value in the series on casein [2] (between pH 7.5 to 11.5) was “over 90%”. The “Optimum temperature for activity” value in the series with casein [2] (glycine-NaOH buffer, pH 10, same in presence and absence of 5 mM Ca^2+) worked out at 70 °C. Besides, in the series with casein [2] (purified enzyme, casein as substrate, pH 10, 50° C., listed as Nesterenkonia sp. AL protease), the Specific activity is reported as 1802.3 U/mg. The “Ca^2+ dependence of activity and stability” value in the series on casein [2] (with and without 5 mM Ca^2+, all temperatures tested) was “Ca^2+ independent”. In the series on haemoglobin, the “Time to complete hydrolysis of haemoglobin” value is recorded as at most 20 min. In “Isoelectric point”, this molecule registered an Isoelectric point of 4.2. In addition, the “Degradation on gel electrophoresis” value in series [3] is listed as “unaltered”.

The values above are taken from US20060142171A1, “Novel alkaline protease” (priority 2003, published 2006).
